Experiments:
[1] = target: polymerase 3173 (SEQ ID NO:6) double mutant D49A/F418Y, SEQ ID NO:27 (uncultured virus, UniProt R4KMS7, D72A/F441Y); assay: Fluorescent primer extension assay with ddGTP; format: biochemical
Method: (§1) In separate reactions, ddGTP, ddATP, ddTTP, and ddCTP were added to the above mix in concentrations of 50, 500 and 5000 μM each. Five units of polymerase 3173 mutant D49A were added and the reactions were incubated for 30 minutes at 70° C. Extension of the primer was detected by the ABI 310 Genetic Analyzer in Gene Scan mode.
The polymerase 3173 double mutant D49A/F418Y was also tested in the fluorescent primer extension assay described above.

[2] = target: polymerase 3173 (SEQ ID NO:6) mutant D49A (uncultured virus, UniProt R4KMS7, D72A); assay: Inhibition of 5' Rox-labeled primer extension by chain terminators (ABI 310 Genetic Analyzer); format: biochemical; details: ddNTPs 50, 500 and 5000 μM each vs 50 μM each dNTP (up to 100-fold molar excess); 70° C., 30 minutes
Method: as §1

[3] = tested on: radiolabeled polynucleotide; assay: Exonuclease assay (radioactive nucleotide release); format: biochemical
Method: For example, polynucleotides can be synthesized such that a detectable proportion of the nucleotides are radioactively labeled. These polynucleotides are incubated in an appropriate buffer in the presence of the polypeptide to be tested. After incubation, the polynucleotide is precipitated and exonuclease activity is detectable as radioactive counts due to free nucleotides in the supernatant.
The presence of a 3′-5′ exonuclease domain in the 3173 DNA polymerase was detected by reduction in molecular weight of a 5′ fluorescently labeled oligonucleotide. Upon incubation of the primer/template complex described in Example 5, under the same conditions, a portion of the primer product was reduced in apparent molecular weight. This reduction in size was detected by capillary electrophoresis using an ABI 310 Genetic Analyzer operated in GeneScan mode. The presence of an exonuclease domain was confirmed by sequence alignment and by incubation of the polymerase with a radiolabeled polynucleotide, followed by digestion and precipitation with trichloroacetic acid. Radioactivity due to free nucleotides in the supernatant was measured.
An exonuclease assay was performed to confirm that exonuclease activity was eliminated in the mutants. […]
Exonuclease activity for polymerase 3173 was determined as described in Example 7.

[4] = tested on: plasmid and random primers; assay: Strand displacement activity in rolling circle amplification (RCA) with random primers; format: biochemical
Method: As used herein, “strand displacement activity” refers to the ability of a polymerase to displace downstream DNA encountered during synthesis. Protocols such as, e.g., strand displacement amplification (SDA) may exploit this activity. Strand displacement activity may be determined using primer-initiated synthesis. A polymerase of the invention is incubated in the presence of a plasmid and random primers. A polymerase of the invention may extend the primer the complete circumference of the plasmid at which point the 5′ end of the primer is encountered. If the polymerase is capable of strand displacement activity, the nascent strand of DNA is displaced and the polymerase continues DNA synthesis. The presence of strand displacement activity results in a product having a molecular weight greater than the original template. The higher molecular weight product can be easily detected by agarose gel electrophoresis.
Strand displacement activity was determined using primer-initiated synthesis in a rolling circle amplification (RCA) protocol. Briefly, polymerase 3173 was incubated in the presence of a plasmid and random primers. Polymerase 3173 extended the primer the complete circumference of the plasmid at which point the 5′ end of the primer was encountered.

Poly rA: Oligo dT = assay: Reverse transcriptase activity by incorporation of radiolabeled dTTP; format: biochemical
Method: Reverse transcriptase activity was detected by incorporation of radiolabeled deoxyribonucleotide triphosphates into polydeoxyribonucleotides using a ribonucleic acid template. […] Incorporation of dTTP was detected as radioactive counts adhering to DE81 filter paper. Similar reverse transcription reactions were measured by incorporation of labeled dTTP on a poly rA template using 1 unit of Tth (Promega) and 1 unit MMLV reverse transcriptase (Novagen) according to the respective manufacturers' recommended conditions.

[5] = tested on: primed single stranded M13 DNA; assay: Binding constant (Km) for primed template; format: biochemical; details: nucleotides in excess, 70° C.
Method: The binding constant (reported as Km, the concentration at which the reaction rate is 50% maximal) for nucleotides by polymerase 3173 was determined using activated calf thymus DNA as a template. Reactions were maintained under pseudo-first order conditions using a molar excess of all components, with the exceptions of the enzyme and the nucleotides. Reactions (50 μl) were incubated at 70° C. and samples (5 μl each) were removed at varying time points and spotted on DE81 paper. Activity was determined as described in Example 6. The binding constant for primed template was similarly determined except that nucleotides were supplied in excess and the concentration of primed template (primed single stranded M13 DNA) was varied.

[6] = tested on: plasmid DNA nicked with N.Bst NB1; assay: Isothermal RCA in the absence of added primers (nick-initiated synthesis)
Method: Suitably, nick-initiated polymerase activity can be detected, e.g., on an agarose gel, as an increase in the amount of DNA product due to synthesis in the presence of a nicking enzyme as compared to minimal or no product synthesized when nicking enzyme is absent from the reaction.
Reactions containing 10 ng of plasmid DNA, 20 mM Tris-HCl, 10 mM (NH4)2SO4, 10 mM KCl, 2 mM MgSO4, 0.1% Triton X-100, pH 8.8 at 25° C., and 200 μM each of dGTP, dATP, dTTP and dCTP were incubated for 2 hours at 56° C. with or without 10 units of nick-generating enzyme N.Bst NB1 (NEB) and either no DNA polymerase, 200 units of 3173 wt or 400 units of 3173 (D49A) mutant enzyme. Parallel reactions were performed in the absence of nicking enzyme, polymerase or both. Amplification products were analyzed by agarose gel electrophoresis.

[7] = tested on: single-stranded M13mp18 and double stranded pUC19 plasmid DNA; assay: High temperature isothermal RCA amplification with random decamer primers; format: biochemical; details: both templates
Method: Five units of polymerase 3173 was used to amplify one nanogram each of single-stranded M13mp18 and double stranded pUC19 plasmid DNA. […] Either 0.5 μM or 5 μM of random decamer primers were added to each template. Reactions were incubated at 95° C. prior to addition of enzyme, then 16 hours at 55° C. with enzyme. One fiftieth of each reaction was resolved on a 1% agarose gel.
Results are shown in FIG. 5, Panel A. Lanes are as follows: five units of 3173 wild type DNA polymerase used to amplify M13mp18 single-stranded DNA template (lanes 2 and 3) and pUC19 double-stranded DNA (lanes 4 and 5) or no template (lane 6). Random ten nucleotide oligomer primers are added in the concentrations of 5 μM (lanes 2, 4 and 6) or 0.5 μM (lanes 3 and 5).
To determine if the amplification was specific for the template DNA, one μl of the amplification product of the positive pUC19 reaction was tested in a PCR reaction using primers specific for a 1 kb sequence in the bla gene of the original plasmid template. As a negative control, a reaction lacking deoxynucleotides was analyzed using PCR. As a positive control, the 1 kb sequence was amplified directly from 1 ng of pUC19.

lacIq gene = assay: Fidelity assay, lacIq amplification with blue/white colony count; details: 25 PCR cycles, target size 349 for lacIq
Method: Fidelity was determined by a modification of the standard assay in which the lacIq gene is amplified by the DNA polymerase of interest and inserted into a plasmid containing genes encoding a functional lacZ alpha peptide and a selectable marker. Primers of SEQ ID NOS:28 and 29 were used to amplify a sequence containing both the lacIq and the KanR gene. […] Normally a white phenotype is seen for clone containing this construct when plated on X-Gal. Mutation of the lacIq results in a blue phenotype for the colonies when plated on X-Gal.
For high fidelity PCR amplification, five units of the wild-type (proofreading) DNA polymerase 3173 (SEQ ID NO: 6) was tested using the following mix (50 mM Tris HCl (pH 9.0 at 25° C.), 50 mM KCl, 10 mM (NH4)2SO4, 1.5 mM MgSO4, 1.5 mM MgCl2, 0.1% triton-X100, 250 mM ectoine and 0.2 mM each of dGTP, dATP, dTTP and dCTP. Opposing primers of SEQ ID 28 and 29 (1 μM each) amplified the expected 2 k kb product from template SEQ ID 30 (10 ng). After thermal cycling (94° C. for 1 minute, 25 cycles of (94° C. for 15 seconds, 60° C. for 15 seconds, 72° C. for 2.5 minutes) and 72° C. 7 minutes), reaction products were quantified to determine “fold amplification,” (see below) using agarose gel electrophoresis. Both primers contain Eco109I sites. The PCR product was digested with Eco109I and inserted into the Eco109I site of pUC19. 10 G cells transformed by the construct were plated on LB plates containing ampicillin (100 μg/ml), kanamycin (30 μg/ml) and X-Gal (50 μg/ml). Blue and white colony counts were used for the fidelity determinations.

[8] = tested on: M13 primer on M13mp18 ssDNA; assay: Primer extension detected by Pico Green with chain terminating analogs; format: biochemical; details: control without chain terminating analogs, 2 mM each dNTP
Method: In a second experiment, incorporation was tested by detection of DNA synthesis using a double-strand specific fluorescent dye, Pico Green (Invitrogen). […] In separate reactions, a mix of ddGTP, ddATP ddTTP, ddCTP (2 mM each) and a mix of the four acyNTPs (2 mM each) were added to extension reactions followed by DNA polymerase. As a control, identical reactions without added chain terminating analogs were also performed. Polymerase 3173 mutant D49A was tested and, for comparison, T7 DNA polymerase, which incorporates ddNTPs with very low discrimination, and Klenow fragment of E. coli polymerase I and VENTR DNA polymerase (New England Biolabs), both of which have a higher discrimination, were also tested. Extension of the primer was detected by fluorescence of Pico Green dye.

Sequence of polymerase 3173 (SEQ ID NO:6) double mutant D49A/F418Y, SEQ ID NO:27 (R4KMS7 entry or part of it D72A/F441Y): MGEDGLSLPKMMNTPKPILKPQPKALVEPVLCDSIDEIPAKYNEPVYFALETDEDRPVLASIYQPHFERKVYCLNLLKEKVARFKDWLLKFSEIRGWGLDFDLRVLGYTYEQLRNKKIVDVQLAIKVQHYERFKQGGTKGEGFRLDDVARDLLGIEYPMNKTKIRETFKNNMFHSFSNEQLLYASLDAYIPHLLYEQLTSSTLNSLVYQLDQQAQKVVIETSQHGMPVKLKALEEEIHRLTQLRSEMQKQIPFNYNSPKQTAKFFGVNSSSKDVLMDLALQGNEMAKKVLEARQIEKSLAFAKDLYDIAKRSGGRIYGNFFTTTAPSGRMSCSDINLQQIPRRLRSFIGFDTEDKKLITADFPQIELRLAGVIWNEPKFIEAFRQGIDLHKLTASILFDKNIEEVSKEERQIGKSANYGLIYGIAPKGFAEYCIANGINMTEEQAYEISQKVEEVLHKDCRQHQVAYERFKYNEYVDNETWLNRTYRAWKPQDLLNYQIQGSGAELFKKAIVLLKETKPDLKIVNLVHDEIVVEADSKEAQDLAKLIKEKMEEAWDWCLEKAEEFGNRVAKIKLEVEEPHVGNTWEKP
Sequence of polymerase 3173 (SEQ ID NO:6) mutant D49A (R4KMS7 entry or part of it D72A): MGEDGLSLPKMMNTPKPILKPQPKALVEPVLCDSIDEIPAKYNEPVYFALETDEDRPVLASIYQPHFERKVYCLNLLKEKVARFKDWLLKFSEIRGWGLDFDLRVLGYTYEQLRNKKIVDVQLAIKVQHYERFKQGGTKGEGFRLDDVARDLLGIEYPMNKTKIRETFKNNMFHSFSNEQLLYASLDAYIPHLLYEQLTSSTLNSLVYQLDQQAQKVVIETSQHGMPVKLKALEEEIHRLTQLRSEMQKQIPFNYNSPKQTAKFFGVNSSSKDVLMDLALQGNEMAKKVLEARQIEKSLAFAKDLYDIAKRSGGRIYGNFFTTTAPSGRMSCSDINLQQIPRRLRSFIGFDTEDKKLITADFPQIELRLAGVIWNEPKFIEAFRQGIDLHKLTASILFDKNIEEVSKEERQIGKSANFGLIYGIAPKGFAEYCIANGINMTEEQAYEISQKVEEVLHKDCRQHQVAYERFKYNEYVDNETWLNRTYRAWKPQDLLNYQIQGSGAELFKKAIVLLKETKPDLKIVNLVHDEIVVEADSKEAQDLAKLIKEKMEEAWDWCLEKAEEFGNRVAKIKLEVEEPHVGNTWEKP

Molecule: Nc1nc2c(ncn2[C@H]2CC[C@@H](COP(=O)(O)OP(=O)(O)OP(=O)(O)O)O2)c(=O)[nH]1 [ddGTP]
- inhibition of primer extension ([1]; 0.2× ratio of ddGTP:dGTP): nearly complete inhibition of primer extension, with no extension continuing beyond the fourth G residue
- inhibition of primer extension ([1]; 2× ratio of ddGTP:dGTP): almost completely inhibited any extension
- inhibition of primer extension [2]: no inhibition of primer extension was detected

B1: polymerase 3173: thermostable viral DNA polymerase with the amino acid sequence of SEQ ID NO:6 (protein)
chain: MGEDGLSLPKMMNTPKPILKPQPKALVEPVLCDSIDEIPAKYNEPVYFDLETDEDRPVLASIYQPHFERKVYCLNLLKEKVARFKDWLLKFSEIRGWGLDFDLRVLGYTYEQLRNKKIVDVQLAIKVQHYERFKQGGTKGEGFRLDDVARDLLGIEYPMNKTKIRETFKNNMFHSFSNEQLLYASLDAYIPHLLYEQLTSSTLNSLVYQLDQQAQKVVIETSQHGMPVKLKALEEEIHRLTQLRSEMQKQIPFNYNSPKQTAKFFGVNSSSKDVLMDLALQGNEMAKKVLEARQIEKSLAFAKDLYDIAKRSGGRIYGNFFTTTAPSGRMSCSDINLQQIPRRLRSFIGFDTEDKKLITADFPQIELRLAGVIWNEPKFIEAFRQGIDLHKLTASILFDKNIEEVSKEERQIGKSANFGLIYGIAPKGFAEYCIANGINMTEEQAYEISQKVEEVLHKDCRQHQVAYERFKYNEYVDNETWLNRTYRAWKPQDLLNYQIQGSGAELFKKAIVLLKETKPDLKIVNLVHDEIVVEADSKEAQDLAKLIKEKMEEAWDWCLEKAEEFGNRVAKIKLEVEEPHVGNTWEKP
modifications: Uncultured newly isolated virus
- 3′-5′ exonuclease activity [3]: strong
- nuclease activity ([3]; assay detects levels below 0.1% of wild-type): potent
- Strand displacement ([4]; listed as 3173): strong
- Strand displacement ([4]; listed as Polymerase 3173): displaced the nascent strand of DNA and continued DNA synthesis
- reverse transcription in presence of manganese versus magnesium (Poly rA: Oligo dT): equivalent
- Incorporation of dTTP (Poly rA: Oligo dT; 1 U enzyme, 60° C. 20 minutes (commercial enzymes per manufacturers' conditions)): 1.037 nmol
- Km [5]: 5.3 nM
- Extension from nicks [6]: strong
- yields of DNA product ([6]; nicking enzyme present, 2 hours at 56° C., 200 units 3173 wt or 400 units D49A): multi-microgram yields
- estimated overall yield ([7]; 5 units, 1 ng template, 16 hours at 55° C.): approximately 50 μg
- amplification [7]: up to 50,000 fold
- Thermostability (T1/2 at 95°): 10 min
- Fidelity (lacIq gene): 6.98 × 10^4
- Fidelity (lacIq gene; listed as DNA polymerase 3173): 6.98E+04

B2: T7: T7 DNA polymerase, which incorporates ddNTPs with very low discrimination (protein, UniProt P00581 1-704, looked up)
DNA-directed DNA polymerase: MIVSDIEANALLESVTKFHCGVIYDYSTAEYVSYRPSDFGAYLDALEAEVARGGLIVFHNGHKYDVPALTKLAKLQLNREFHLPRENCIDTLVLSRLIHSNLKDTDMGLLRSGKLPGKRFGSHALEAWGYRLGEMKGEYKDDFKRMLEEQGEEYVDGMEWWNFNEEMMDYNVQDVVVTKALLEKLLSDKHYFPPEIDFTDVGYTTFWSESLEAVDIEHRAAWLLAKQERNGFPFDTKAIEELYVELAARRSELLRKLTETFGSWYQPKGGTEMFCHPRTGKPLPKYPRIKTPKVGGIFKKPKNKAQREGREPCELDTREYVAGAPYTPVEHVVFNPSSRDHIQKKLQEAGWVPTKYTDKGAPVVDDEVLEGVRVDDPEKQAAIDLIKEYLMIQKRIGQSAEGDKAWLRYVAEDGKIHGSVNPNGAVTGRATHAFPNLAQIPGVRSPYGEQCRAAFGAEHHLDGITGKPWVQAGIDASGLELRCLAHFMARFDNGEYAHEILNGDIHTKNQIAAELPTRDNAKTFIYGFLYGAGDEKIGQIVGAGKERGKELKKKFLENTPAIAALRESIQQTLVESSQWVAGEQQVKWKRRWIKGLDGRKVHVRSPHAALNTLLQSAGALICKLWIIKTEEMLVEKGLKHGWDGDFAYMAWVHDEIQVGCRTEEIAQVVIETAQEAMRWVGDHWNFRCLLDTEGKMGPNWAICH
- Primer extension, dNTPs [8]: 100.0%

— US8093030B2, “Thermostable viral polymerases and methods of use” (Lucigen Corporation, priority 2005, dated 2012)
